Test results published in patent US20100113291A1 (CENTRE NATIONAL DE LA RECHERCHE SCIENTIFIQUE, priority 2006, published 2010).

Format: biochemical
Details: acetoacetyl-CoA and NADPH both at 100 μM

B1: MabA-wt: wild-type protein MabA of Mycobacterium tuberculosis, SEQ ID NO: 1 (protein, listed as Mycobacterium tuberculosis)
chain: MTATATEGAKPPFVSRSVLVTGGNRGIGLAIAQRLAADGHKVAVTHRGSGAPKGLFGVECDVTDSDAVDRAFTAVEEHQGPVEVLVSNAGLSADAFLMRMTEEKFEKVINANLTGAFRVAQRASRSMQRNKFGRMIFIGSVSGSWGIGNQANYAASKAGVIGMARSIARELSKANVTANVVAPGYIDTDMTRALDERIQQGALQFIPAKRVGTPAEVAGVVSFLASEDASYISGAVIPVDGGMGMGH
For B1, the Vi was 0.60 ± 0.01 µmol/min/mg.
